The results in this text go back to patent US20260125451A1 (JIANGSU HENGRUI PHARMACEUTICALS, published 2026).

Like-named read-outs stand apart in the source and are kept apart here.

In assay [1] the target is T1, BAFF (PeproTech, Cat: 310-13) (UniProt Q9Y275 134-285). The assay can be described thus: ELISA, BAFF coated, anti-human Fc-HRP.
For assay [2], the target named is T1, BAFF (PeproTech, Cat: 310-13). The assay can be described thus: ELISA, BAFF coated, anti-human Fc-HRP, OD450. The method, then: (§1) The capabilities of TACI-BCMA fusion proteins (B575701, B575702, B575703, and B575704) to bind to BAFF and APRIL were assessed by ELISA as follows:
(§2) BAFF (PeproTech, Cat: 310-13) or ARPIL (Acro Biosystems, Cat: APL-H52D1) was diluted to 1 μg/mL with PBS, and a 96-well plate (Costar, Cat: 3590) was coated with the dilution overnight at 4° C. The plate was washed with PBST and blocked with Blocking Buffer (PBST containing 1% BSA) at 37° C. for 1 h. The plate was tapped. The test antibodies were diluted with Blocking Buffer. Incubation was performed at 37° C. for 1.5 h. The plate was washed with PBST. An HRP-mouse anti-human Fc antibody (GenScript, Cat: A01854-200) was diluted with Blocking Buffer. Incubation was performed at 37° C. for 40 min. The plate was washed with PBST. 100 μL of TMB substrate solution (Biopanda, Cat: TMB-S-003) was added, and color development was performed at 37° C. for 3 min. 100 μL of ELISA stop solution (Solarbio, Cat: C1058) was added. OD450 was measured.

The target in assay [3] is T2, APRIL (Acro Biosystems, Cat: APL-H52D1) (UniProt O75888 115-250, limits assumed).
T2 construct: also called ARPIL; A proliferation-inducing ligand
T2 sequence (looked up): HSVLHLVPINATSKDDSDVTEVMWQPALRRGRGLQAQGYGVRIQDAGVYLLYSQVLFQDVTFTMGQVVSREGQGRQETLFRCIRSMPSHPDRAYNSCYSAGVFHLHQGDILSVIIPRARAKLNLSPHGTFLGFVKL
Description: ELISA, APRIL coated, anti-human Fc-HRP, OD450. The method, then: as §1, §2

In assay [4] the target is T2, APRIL (Acro Biosystems, Cat: APL-H52D1). The assay can be described thus: ELISA, APRIL coated, anti-human Fc-HRP, OD450. The procedure:
The capabilities of B613301, B613302, and B613303, which are fusion proteins of anifrolumab and TACI-BCMA, to bind to BAFF and APRIL were assessed by ELISA as follows:
as §2
This is another data set of the same source.

Assay [5] has as its target recombinant human BAFF (R&D cat: 7537-BF-025/CF) (human, UniProt Q9Y275 134-285, limits assumed). Description: cell-based or functional assay.
The target of assay [6] is T3, recombinant human ARPIL (R&D cat: 5860-AP-010/CF) (human, UniProt O75888 105-250, limits assumed).
T3 sequence (looked up): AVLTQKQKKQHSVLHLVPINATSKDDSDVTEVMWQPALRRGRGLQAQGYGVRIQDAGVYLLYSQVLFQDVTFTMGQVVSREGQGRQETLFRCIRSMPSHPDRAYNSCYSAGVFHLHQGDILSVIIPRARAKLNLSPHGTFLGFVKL
Description: cell-based or functional assay.

Assay [7] deals with T2, APRIL (Acro Biosystems, Cat: APL-H52D1). The assay can be described thus: ELISA, APRIL coated, anti-human Fc-HRP, OD450. The procedure:
The capabilities of fusion proteins B606401, B637302, B746201, and B805201 to bind to BAFF and APRIL were assessed by ELISA as follows:
as §2, with “plate” for “plate (Costar, Cat: 3590)”
The EC₅₀ value for the capability of B637302 to bind to APRIL decreased to 1/7 to ⅙ of that of telitacicept.
This is another data set of the same source.

T1 sequence (Q9Y275 134-285 limits assumed): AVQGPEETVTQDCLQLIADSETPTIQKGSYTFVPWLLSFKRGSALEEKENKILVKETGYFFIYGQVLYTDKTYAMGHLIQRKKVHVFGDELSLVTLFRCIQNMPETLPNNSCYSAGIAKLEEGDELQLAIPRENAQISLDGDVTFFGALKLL
recombinant human BAFF (R&D cat: 7537-BF-025/CF), sequence (Q9Y275 134-285 limits assumed): as above

B1: B575702 (Fc fusion)
chain: MLQMAGQCSQNEYFDSLLHACIPCQLRCSSNTPPLTCQRYCNASVTNSVKGTNALSCRKEQGKFYDHLLRDCISCASICGQHPKQCAYFCENKLRSPGDKTHTCPPCPAPEAEGAPSVFLFPPKPKDTLMISRTPEVTCVVVDVSHEDPEVKFNWYVDGVEVHNAKTKPREEQYNSTYRVVSVLTVLHQDWLNGKEYKCKVSNKALPSSIEKTISKAKGQPREPQVYTLPPSRDELTKNQVSLTCLVKGFYPSDIAVEWESNGQPENNYKTTPPVLDSDGSFFLYSKLTVDKSRWQQGNVFSCSVMHEALHNHYTQKSLSLSPGK
notes: TACI-BCMA fusion protein; also called BCMA-ECD-TACI-d2-Fc
Consider B1, for which the “EC50 relative to that of telitacicept” value in assay [1] stood at 0.25 ratio. Also, the Emax in assay [2] turned out to be 2.24 nM; in assay [3], 2.64 nM.

B2: B613301 (other)
heavy: EVQLVQSGAEVKKPGESLKISCKGSGYIFTNYWIAWVRQMPGKGLESMGIIYPGDSDIRYSPSFQGQVTISADKSITTAYLQWSSLKASDTAMYYCARHDIEGFDYWGRGTLVTVSSASTKGPSVFPLAPSSKSTSGGTAALGCLVKDYFPEPVTVSWNSGALTSGVHTFPAVLQSSGLYSLSSVVTVPSSSLGTQTYICNVNHKPSNTKVDKRVEPKSCDKTHTCPPCPAPEFEGGPSVFLFPPKPKDTLMISRTPEVTCVVVDVSHEDPEVKFNWYVDGVEVHNAKTKPREEQYNSTYRVVSVLTVLHQDWLNGKEYKCKVSNKALPASIEKTISKAKGQPREPQVYTLPPSRDELTKNQVSLTCLVKGFYPSDIAVEWESNGQPENNYKTTPPVLDSDGSFFLYSKLTVDKSRWQQGNVFSCSVMHEALHNHYTQKSLSLSPGK
light: EIVLTQSPGTLSLSPGERATLSCRASQSVSSSFFAWYQQKPGQAPRLLIYGASSRATGIPDRLSGSGSGTDFTLTITRLEPEDFAVYYCQQYDSSAITFGQGTRLEIKRTVAAPSVFIFPPSDEQLKSGTASVVCLLNNFYPREAKVQWKVDNALQSGNSQESVTEQDSKDSTYSLSSTLTLSKADYEKHKVYACEVTHQGLSSPVTKSFNRGECGGGGSGGGGSLSCRKEQGKFYDHLLRDCISCASICGQHPKQCAYFCENKLRSPGMLQMAGQCSQNEYFDSLLHACIPCQLRCSSNTPPLTCQRYCNASVTNSVKGTNA
notes: Fusion protein of anifrolumab and TACI-BCMA
B2 came in with an Emax in assay [4] of 2.49 nM.

B3: B613302 (other)
heavy: EVQLVQSGAEVKKPGESLKISCKGSGYIFTNYWIAWVRQMPGKGLESMGIIYPGDSDIRYSPSFQGQVTISADKSITTAYLQWSSLKASDTAMYYCARHDIEGFDYWGRGTLVTVSSASTKGPSVFPLAPSSKSTSGGTAALGCLVKDYFPEPVTVSWNSGALTSGVHTFPAVLQSSGLYSLSSVVTVPSSSLGTQTYICNVNHKPSNTKVDKRVEPKSCDKTHTCPPCPAPEFEGGPSVFLFPPKPKDTLMISRTPEVTCVVVDVSHEDPEVKFNWYVDGVEVHNAKTKPREEQYNSTYRVVSVLTVLHQDWLNGKEYKCKVSNKALPASIEKTISKAKGQPREPQVYTLPPSRDELTKNQVSLTCLVKGFYPSDIAVEWESNGQPENNYKTTPPVLDSDGSFFLYSKLTVDKSRWQQGNVFSCSVMHEALHNHYTQKSLSLSPGK
light: EIVLTQSPGTLSLSPGERATLSCRASQSVSSSFFAWYQQKPGQAPRLLIYGASSRATGIPDRLSGSGSGTDFTLTITRLEPEDFAVYYCQQYDSSAITFGQGTRLEIKRTVAAPSVFIFPPSDEQLKSGTASVVCLLNNFYPREAKVQWKVDNALQSGNSQESVTEQDSKDSTYSLSSTLTLSKADYEKHKVYACEVTHQGLSSPVTKSFNRGECGGGGSGGGGSMLQMAGQCSQNEYFDSLLHACIPCQLRCSSNTPPLTCQRYCNASVTNSVKGTNALSCRKEQGKFYDHLLRDCISCASICGQHPKQCAYFCENKLRSPG
notes: as for B2
Take B3: the Emax in assay [4] turned out to be 2.52 nM.

B4: Telitacicept (RCT-18) (Fc fusion)
chain: SRVDQEERFPQGLWTGVAMRSCPEEQYWDPLLGTCMSCKTICNHQSQRTCAAFCRSLSCRKEQGKFYDHLLRDCISCASICGQHPKQCAYFCENKLRSPVNLPPELDKTHTCPPCPAPEAEGAPSVFLFPPKPKDTLMISRTPEVTCVVVDVSHEDPEVKFNWYVDGVEVHNAKTKPREEQYNSTYRVVSVLTVLHQDWLNGKEYKCKVSNKALPSSIEKTISKAKGQPREPQVYTLPPSRDELTKNQVSLTCLVKGFYPSDIAVEWESNGQPENNYKTTPPVLDSDGSFFLYSKLTVDKSRWQQGNVFSCSVMHEALHNHYTQKSLSLSPGK
notes: Positive control, TACI-Fc
Take B4: in assay [5], the “Flow cytometry proliferating B cell proportion (%), mean, BAFF-induced, drug at 10 nM” value worked out at 36%; the “Flow cytometry proliferating B cell proportion (%), mean, BAFF-induced, drug at 100 nM” value worked out at 30.7%; the “Flow cytometry proliferating B cell proportion (%), mean, BAFF-induced, drug at 1000 nM” value was 24.3%. Moreover, in assay [6], the “Flow cytometry proliferating B cell proportion (%), mean, APRIL-induced, drug at 4.12 nM” value worked out at 48.1%; the “Flow cytometry proliferating B cell proportion (%), mean, APRIL-induced, drug at 12.35 nM” value turned out to be 49.2%; the “Flow cytometry proliferating B cell proportion (%), mean, APRIL-induced, drug at 37.04 nM” value amounted to 50.1%; the “Flow cytometry proliferating B cell proportion (%), mean, APRIL-induced, drug at 111.11 nM” value was found to be 50.3%. Besides, in assay [6], the “Flow cytometry proliferating B cell proportion (%), mean, APRIL-induced, drug at 333.33 nM” value was determined as 49.1% and the “Flow cytometry proliferating B cell proportion (%), mean, APRIL-induced, drug at 1000.00 nM” value is 46.3%. In assay [2], this molecule displayed an Emax of 2.28 nM. The molecule also came in with an Emax in assay [3] of 2.62 nM. Besides, the Emax in assay [4] stood at 2.5 nM. Besides, the Emax in assay [7] was 2.98 nM.

B5: B575704 (Fc fusion)
chain: MLQMAGQCSQNEYFDSLLHACIPCQLRCSSNTPPLTCQRYCNASVTNSVKGTNASRVDQEERFPQGLWTGVAMRSCPEEQYWDPLLGTCMSCKTICNHQSQRTCAAFCRSLSCRKEQGKFYDHLLRDCISCASICGQHPKQCAYFCENKLRSPVNLPPELDKTHTCPPCPAPEAEGAPSVFLFPPKPKDTLMISRTPEVTCVVVDVSHEDPEVKFNWYVDGVEVHNAKTKPREEQYNSTYRVVSVLTVLHQDWLNGKEYKCKVSNKALPSSIEKTISKAKGQPREPQVYTLPPSRDELTKNQVSLTCLVKGFYPSDIAVEWESNGQPENNYKTTPPVLDSDGSFFLYSKLTVDKSRWQQGNVFSCSVMHEALHNHYTQKSLSLSPGK
notes: TACI-BCMA fusion protein; also called BCMA-ECD-TACI-T2-Fc
On to B5, for which the “EC50 relative to that of telitacicept” value in assay [1] is 0.25 ratio. The values for the Emax in assay [2] and in assay [3] were 2.29 nM and 2.68 nM, respectively.

B6: B575703 (Fc fusion)
chain: SRVDQEERFPQGLWTGVAMRSCPEEQYWDPLLGTCMSCKTICNHQSQRTCAAFCRSLSCRKEQGKFYDHLLRDCISCASICGQHPKQCAYFCENKLRSPVNLPPELMLQMAGQCSQNEYFDSLLHACIPCQLRCSSNTPPLTCQRYCNASVTNSVKGTNADKTHTCPPCPAPEAEGAPSVFLFPPKPKDTLMISRTPEVTCVVVDVSHEDPEVKFNWYVDGVEVHNAKTKPREEQYNSTYRVVSVLTVLHQDWLNGKEYKCKVSNKALPSSIEKTISKAKGQPREPQVYTLPPSRDELTKNQVSLTCLVKGFYPSDIAVEWESNGQPENNYKTTPPVLDSDGSFFLYSKLTVDKSRWQQGNVFSCSVMHEALHNHYTQKSLSLSPGK
notes: TACI-BCMA fusion protein; also called TACI-T2-BCMA-ECD-Fc
In the case of B6, in assay [1], the “EC50 relative to that of telitacicept” value amounted to 0.5 ratio. The Emax in assay [2] turned out to be 2.43 nM; in assay [3], 2.78 nM.

B7: B575701 (Fc fusion)
chain: LSCRKEQGKFYDHLLRDCISCASICGQHPKQCAYFCENKLRSPGMLQMAGQCSQNEYFDSLLHACIPCQLRCSSNTPPLTCQRYCNASVTNSVKGTNADKTHTCPPCPAPEAEGAPSVFLFPPKPKDTLMISRTPEVTCVVVDVSHEDPEVKFNWYVDGVEVHNAKTKPREEQYNSTYRVVSVLTVLHQDWLNGKEYKCKVSNKALPSSIEKTISKAKGQPREPQVYTLPPSRDELTKNQVSLTCLVKGFYPSDIAVEWESNGQPENNYKTTPPVLDSDGSFFLYSKLTVDKSRWQQGNVFSCSVMHEALHNHYTQKSLSLSPGK
notes: TACI-BCMA fusion protein; also called TACI-d2-BCMA-ECD-Fc
B7: the “EC50 relative to that of telitacicept” value in assay [1] stood at 0.5 ratio. Moreover, the Emax in assay [2] was determined as 2.31 nM; in assay [3], 2.69 nM.
